Consider 27 sequences from the supplement of paper PMC9170038.

For the data set, the system named is MS2 coat protein. Briefly: apparent KD of MS2 coat protein; designed switch direction (-1 OFF switch, 1 ON switch): 1; higher = weaker reporter binding. A digest of the protocol:
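For each design, the apparent KD is the median over clusters of curves fitted to normalised cluster fluorescence. Clusters held RNA switches with common flanks, transcribed on Illumina chips by stalled E. coli RNA polymerase. These were titrated with SNAP-549-labelled MS2 coat protein, doubling from 0.7 or 1.5 nM to 3 µM, without input, with 200 uM small-molecule ligand, or with an oligonucleotide input.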

Where [1] appears, read: input ligand: microRNA oligo, concentration not stated.
[2] abbreviates: Eterna round: R95, input ligand: FMN 200 uM.
The mark [3] stands for this setting: Eterna round: R95, input ligand: microRNA oligo, concentration not stated.
Setting [4] is: Eterna round: R95, input ligand: none.

On to “GCUCGAUGAACGUCCUACAUGAGGAUCACCCAUGUUCGUGGGCAGGAUAUUUACAUGCAGAGUGUAGAGAAGGGCCCAUCGAGC [SameState NG3 #64] (Eterna round: R96, puzzle: Same State NG 3)”, for which the “apparent KD of MS2 coat protein” value amounted to 67.8 nM (input ligand: FMN 200 uM), 74.6 nM under setting [1] and 165 nM (input ligand: none).
In the same order, the values of “GCUCGAUGAGCUGUUUACAUGAGGAUCACCCAUGUAGAUGCGGAGGAUAUUUACGUGCUUUAUGUAGAGAAGGCCGUAUCGAGC [SameState NG3 #80] (Eterna round: R96, puzzle: Same State NG 3)” are 14 nM, 24.5 nM and 24.1 nM.
Regarding “GCUCGAUGAUAGUCCUACAUGAGGAUCACCCAUGUAAGUGGGCAGGAUAUCUACAUGCAGAAUGUAGAGAAGGGCCCGUCGAGC [SameState NG3 #56] (Eterna round: R96, puzzle: Same State NG 3)”, the “apparent KD of MS2 coat protein” value was determined as 16.1 nM (input ligand: FMN 200 uM), 16.4 nM under setting [1] and 23.2 nM (input ligand: none).
In the same order, the values of “GCUCGGAUGAUGGCCCACAUGAGGAUCACCCAUGUGAGUGGGCAGGAUAUCUAGAUUAAGGAUGUAGAGAAGGGCCUACCGAGC [SameState NG3 #34] (Eterna round: R96, puzzle: Same State NG 3)” are 2070 nM, 100 nM and 759 nM.
For “GCUCGUGGUAUUGUCUACAUGAGGAUCACCCAUGUAGGUGCGGAGGAUAUUUACGUGUCUCAUGUAGAGAAGGCCGUCACGAGC [SameState NG3 #97] (Eterna round: R96, puzzle: Same State NG 3)” the same measures were 52.2 nM, 190 nM and 297 nM.
In the same order, the values of “GCUGCGAUUAACGCCUACAUGAGGAUCACCCAUGUAUGUAGGCAGGAUAUCGUUUGCUUUGCAAACGAGAAGGGCUGUAGUAGC [salish99_SSNG3_R04_004] (Eterna round: R96, puzzle: Same State NG 3)” are 39.4 nM, 68.4 nM and 86.9 nM.
Take “GCUUGCGGCGCAGGAUAUGGGUGCCUGUACAUGAGGAUCACCCAUGUUAAGGGACGGAAAACGAACCAGAAGGGCGUCGCGAGC [Inraeded] (Eterna round: R96, puzzle: Same State NG 2)”: the “apparent KD of MS2 coat protein” value (input ligand: FMN 200 uM) stood at 84.9 nM, the “apparent KD of MS2 coat protein” value under setting [1] was 218 nM and the “apparent KD of MS2 coat protein” value (input ligand: none) is 1280 nM.
In the same order, the values of “GGAAAGAGGUUAGGAUAUGCAUGUUUGGGACAUGAGGAUCACCCAUGUAAUAGAAGAAAUCUACAGUAGAAGGGACAAGGAAGG [AK SSNG2-V2-6.1] (Eterna round: R96, puzzle: Same State NG 2)” are 152 nM, 72.9 nM and 170 nM.
In the same order, the values of “GGAACACAUGAGGAUCACCCAUGUCAAGGAGGUCGAGGAUAUAGGAAAAAAAAAAAAAAAUUAGAAGGUGAGGAGG [V1] (Eterna round: R96, puzzle: Same State 1)” are 270 nM, 166 nM and 275 nM.
In the same order, the values of “GGAAUAUUUACAGGAUAUGAUUUGUAAAUUCGAUCAGAAGGGUAGAUGUCUUACACGAUUUGUUACAUGAGGAUCACCCAUGUU [SameState NG1 #10] (Eterna round: R96, puzzle: Same State NG 1)” are 31 nM, 81.9 nM and 86.3 nM.
With “GGAGAACAUGAGGAUCACCCAUGUAGGCGUUAGCUAGGAUAUGCGGGAAGGAAGAGAGAAGCAGAAGGAGUAGGUA [JR_SS1_Sub031] (puzzle: Same State 1)”, the “apparent KD of MS2 coat protein” value under setting [2] was determined as 39.6 nM, the “apparent KD of MS2 coat protein” value under setting [3] is 64.4 nM and the “apparent KD of MS2 coat protein” value under setting [4] is 80 nM.
As for “GGAGAGAAGUGAGGAUAUGCAUGGAAGACACAUGAGGAUCACCCAUGUGGGAGGGAGACCGGGAGGUAGAAGGCACUGGGAAGA [AK SSNG2-V2-25.1] (Eterna round: R96, puzzle: Same State NG 2)”, the “apparent KD of MS2 coat protein” value is, setting by setting: (input ligand: FMN 200 uM) 425 nM; under setting [1], 42.3 nM; (input ligand: none) 74.2 nM.
In the same order, the values of “GGAGCCAAGGCAGGAUAUUCAAAACAUGAGGAUCACCCAUGUGGGUAAAAGGCCAGAAGGCCUUGGGAGAAGGGCCAUGGCUCG [Xeonanis - 13 mod12] (Eterna round: R96, puzzle: Same State NG 2)” are 11.5 nM, 9.02 nM and 15.8 nM.
On to “GGAGCCGGCACUGAGGAUAUUCAUAUUAAAACAUGAGGAUCACCCAUGUAGGCCAGAAGGCCUUGGGAGAAGGCAGGUCGACUCG [Diqureveri] (Eterna round: R96, puzzle: Same State 2)”, for which the “apparent KD of MS2 coat protein” value was determined as 24.5 nM (input ligand: FMN 200 uM), 159 nM under setting [1] and 209 nM (input ligand: none).
In the case of “GGAGCCGGCACUGAGGAUAUUCAUAUUAAAACAUGAGGAUCACCCAUGUAGGCCAGAAGGCCUUGGGAGAAGGCGGGUCGACUCG [Diqureveri - 1] (puzzle: Same State 2)”, the “apparent KD of MS2 coat protein” value under setting [2] came to 29.7 nM, the “apparent KD of MS2 coat protein” value under setting [3] was determined as 523 nM and the “apparent KD of MS2 coat protein” value under setting [4] was 371 nM.
For the sequence “GGAGCCGGCACUGAGGAUAUUCGUAUUAAAACAUGAGGAUCACCCAUGUAGGCCAGAAGGCCUUGGGAGAAGGCAGGUCGACUCG [Diqureveri - 2] (puzzle: Same State 2)”, the “apparent KD of MS2 coat protein” value turned out to be 17.2 nM under setting [2], 38.9 nM under setting [3] and 59.7 nM under setting [4].
“GGAGCCGGCCUAGGAUAUUUCAUAAAUUAACAUGAGGAUCACCCAUGUAGGCCAGAAGGCCUUGGGAAGAAGGAGGUCGGCUCC [Loop Effect - U27,U28] (Eterna round: R96, puzzle: Same State NG 2)”: the “apparent KD of MS2 coat protein” value reads like this: (input ligand: FMN 200 uM) 16.8 nM; under setting [1], 37.7 nM; (input ligand: none) 51.4 nM.
For “GGAGCCGGCCUAGGAUAUUUCAUAACAAAACAUGAGGAUCACCCAUGUAGGCCAGAAGGCCUUGGGAAGAAGGAGGUCGGCUCC [Loop Effect - C26] (Eterna round: R96, puzzle: Same State NG 2)”, the “apparent KD of MS2 coat protein” value under setting [1] amounted to 18.9 nM.
Regarding “GGAGCCGGUACUGAGGAUAUUCAUAUUAAAACAUGAGGAUCACCCAUGUAGGCCAGAAGGCCUUGGGAGAAGGCAGGCCAGCUCG [Atgexeedri - 4] (Eterna round: R96, puzzle: Same State 2)”, the “apparent KD of MS2 coat protein” value (input ligand: FMN 200 uM) amounted to 24.7 nM, the “apparent KD of MS2 coat protein” value under setting [1] came to 177 nM and the “apparent KD of MS2 coat protein” value (input ligand: none) came out at 268 nM.
On to “GGAGCCGGUACUGAGGAUAUUCAUAUUAAAACAUGAGGAUCACCCAUGUAGGCCAGAAGGCCUUGGGAGAAGGCAGGCCAGCUCG [Atgexeedri - 4] (puzzle: Same State 2)”, for which the “apparent KD of MS2 coat protein” value runs as follows: under setting [2], 20.2 nM; under setting [3], 270 nM; under setting [4], 458 nM.
“GGAGCCGGUACUGAGGAUAUUCAUAUUAAAACAUGAGGAUCACCCAUGUGGGCCAGAAGGCCUUGGGAGAAGGCAGACCAGCUCG [Atgexeedri - 3] (Eterna round: R96, puzzle: Same State 2)”: the “apparent KD of MS2 coat protein” value is, setting by setting: (input ligand: FMN 200 uM) 18.2 nM; under setting [1], 108 nM; (input ligand: none) 156 nM.
Take “GGAGCCGGUACUGAGGAUAUUCAUAUUAAAACAUGAGGAUCACCCAUGUGGGCCAGAAGGCCUUGGGAGAAGGCAGACCAGCUCG [Atgexeedri - 3] (puzzle: Same State 2)”: the “apparent KD of MS2 coat protein” value was determined as 15.4 nM under setting [2], 115 nM under setting [3] and 177 nM under setting [4].
With “GGAUGAUUGACAGGAUAUCAUUUGUAAAUUCGUUGAGAAGGGUCGAUUACUUACACGACGUGUUACAUGAGGAUCACCCAUGUU [SameState NG1 #4] (Eterna round: R96, puzzle: Same State NG 1)”, the “apparent KD of MS2 coat protein” value worked out at 117 nM (input ligand: FMN 200 uM), 101 nM under setting [1] and 185 nM (input ligand: none).
“GGCAAUAUCACAGGAUAUUGGAAAGGAAGUGUACAAGAAGGGUGAUAGGGCCUCAGCAACAUGAGGAUCACCCAUGUACUGAGC [PowerStrip SSNG 1.10] (Eterna round: R96, puzzle: Same State NG 1)”: the “apparent KD of MS2 coat protein” value is, setting by setting: (input ligand: FMN 200 uM) 62.6 nM; under setting [1], 13.5 nM; (input ligand: none) 40.8 nM.
As for “GGCUGCGUUGUGAAGGAUAUCCGCGUCUGGACAUGAGGAUCACCCAUGUAUGCUUGGAUCAUGCCGGAGAAGGUCACGAAUGAUU [JR_SS002_Sub1214] (Eterna round: R96, puzzle: Same State 2)”, the “apparent KD of MS2 coat protein” value amounted to 17 nM (input ligand: FMN 200 uM), 19.9 nM under setting [1] and 32.9 nM (input ligand: none).
Take “GGGCCAGCCUGUGCUGGGCCUUAGCAUGCACAUGAGGAUCACCCAUGUCGUGUACAUGCUUUUUGCUCGUCUUUAAA [Photon Torp-09] (puzzle: Sensor for hsa-mir-208a)”: the “apparent KD of MS2 coat protein” value is, setting by setting: under setting [2], 79.2 nM; under setting [3], 15.6 nM; under setting [4], 93.2 nM.
For “GGGCCAGCCUGUGCUGGGCUUUAGCAUGUACAUGAGGAUCACCCAUGUCGUGUACAUGCUUUUUGCUCGUCUUUAAA [Photon Torp-07] (puzzle: Sensor for hsa-mir-208a)” the same measures were 70.5 nM, 22.5 nM and 100 nM.
